The target of assay [1] is T1, soluble human αKlotho (recombinant) (human, UniProt Q9UEF7 34-981).
T1 construct: also called Hu aKL; recombinant human αKlotho
T1 sequence (looked up): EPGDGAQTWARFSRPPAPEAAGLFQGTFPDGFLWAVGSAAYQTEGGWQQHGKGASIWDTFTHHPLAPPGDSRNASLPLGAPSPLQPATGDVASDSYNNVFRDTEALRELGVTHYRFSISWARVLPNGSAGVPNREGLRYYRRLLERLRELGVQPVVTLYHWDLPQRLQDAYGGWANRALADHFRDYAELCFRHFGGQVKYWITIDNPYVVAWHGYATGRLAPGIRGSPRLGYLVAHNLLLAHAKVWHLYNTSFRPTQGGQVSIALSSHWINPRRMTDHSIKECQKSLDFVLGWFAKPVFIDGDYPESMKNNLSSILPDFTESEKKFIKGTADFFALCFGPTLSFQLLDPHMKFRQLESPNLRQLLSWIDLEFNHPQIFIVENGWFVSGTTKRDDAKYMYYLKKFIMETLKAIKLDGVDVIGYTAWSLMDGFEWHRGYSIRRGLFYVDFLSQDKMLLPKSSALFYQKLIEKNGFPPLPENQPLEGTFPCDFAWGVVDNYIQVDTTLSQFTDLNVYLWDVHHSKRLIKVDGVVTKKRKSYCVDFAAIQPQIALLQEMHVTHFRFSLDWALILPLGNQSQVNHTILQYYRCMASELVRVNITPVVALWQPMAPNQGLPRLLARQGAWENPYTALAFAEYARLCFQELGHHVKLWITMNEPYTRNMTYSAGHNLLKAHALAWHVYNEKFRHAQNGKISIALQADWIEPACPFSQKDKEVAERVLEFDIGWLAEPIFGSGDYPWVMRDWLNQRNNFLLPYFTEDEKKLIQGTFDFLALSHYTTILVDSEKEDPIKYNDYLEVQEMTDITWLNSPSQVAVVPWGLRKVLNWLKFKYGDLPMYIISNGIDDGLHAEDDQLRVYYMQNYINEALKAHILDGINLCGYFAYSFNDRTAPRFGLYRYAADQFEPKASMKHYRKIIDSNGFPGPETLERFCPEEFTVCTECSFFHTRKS
Description: competitive Fab-phage ELISA, soluble human αKlotho against immobilised human αKlotho. The protocol:
(A) CDR sequences and VH domain framework region residues variable in Library F for anti-αKlotho sb106, according to the IMGT (international ImMunoGeneTics database) numbering scheme. IMGT CDR residues are underlined, IMGT framework region residues are not underlined, residues at IMGT positions which were randomized in the selection library are bold. (B) Specificity determination of anti-αKlotho sb106 by Fab-phage ELISA: sb106 Fab-phage were incubated with the following immobilized antigens: a complex of FGFR1c/αKlotho complex (aKL-R1), FGFR1c alone (R1), human αKlotho (Hu aKL) and mouse αKlotho (Mu aKL), or neutravidin (NA) and bovine serum albumin (BSA) as negative controls. After washing off unbound phage, bound phages were detected using an HRP-conjugated anti-phage antibody. Colorimetric HRP reagents allow for absorbance readings at 450 nm. […] The binding signals to immobilized human αKlotho reported are an average of two data sets.
Binding selections, phage ELISAs and Fab protein purification were performed as described. Briefly, phage from library F were cycled through rounds of panning with the binary complex of αKlotho extracellular domain and FGFR1c ligand-binding domain on 96-well Maxisorp Immunoplates (Fisher Scientific, Nepean, ON, Canada) as the capture target. […]

Assay [2] has as its target T2, mouse αKlotho (mouse, UniProt O35082 35-982).
T2 construct: also called Mu aKL
T2 sequence (looked up): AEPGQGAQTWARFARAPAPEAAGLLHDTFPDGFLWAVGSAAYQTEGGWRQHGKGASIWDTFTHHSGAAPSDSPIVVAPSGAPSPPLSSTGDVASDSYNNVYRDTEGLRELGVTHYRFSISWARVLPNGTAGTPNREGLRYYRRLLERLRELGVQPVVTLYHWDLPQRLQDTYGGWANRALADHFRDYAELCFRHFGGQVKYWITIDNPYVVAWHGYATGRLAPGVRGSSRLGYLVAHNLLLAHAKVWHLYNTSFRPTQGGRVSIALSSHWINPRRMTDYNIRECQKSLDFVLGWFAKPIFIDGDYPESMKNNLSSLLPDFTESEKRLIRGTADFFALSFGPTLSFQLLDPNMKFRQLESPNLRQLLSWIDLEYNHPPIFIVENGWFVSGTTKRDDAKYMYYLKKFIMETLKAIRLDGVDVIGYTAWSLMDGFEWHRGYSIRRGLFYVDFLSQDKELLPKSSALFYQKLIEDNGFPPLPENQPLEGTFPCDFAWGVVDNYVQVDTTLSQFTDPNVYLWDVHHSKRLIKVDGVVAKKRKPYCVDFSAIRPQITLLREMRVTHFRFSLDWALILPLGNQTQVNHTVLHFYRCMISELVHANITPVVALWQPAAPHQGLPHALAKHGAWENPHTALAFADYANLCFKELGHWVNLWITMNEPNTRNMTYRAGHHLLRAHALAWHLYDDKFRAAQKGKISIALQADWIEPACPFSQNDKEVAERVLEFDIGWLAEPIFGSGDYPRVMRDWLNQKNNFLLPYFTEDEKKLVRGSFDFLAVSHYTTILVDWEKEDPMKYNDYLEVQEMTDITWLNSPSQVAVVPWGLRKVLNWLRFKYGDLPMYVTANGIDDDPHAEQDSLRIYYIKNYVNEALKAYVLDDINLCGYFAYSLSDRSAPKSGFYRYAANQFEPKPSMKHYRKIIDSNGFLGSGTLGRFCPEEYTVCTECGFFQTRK
The assay is described as follows: SPR (ProteOn XPR36), Fab captured by anti-IgG(H+L), mouse αKlotho injected in serial dilutions, Langmuir fit [continued) C.]. The protocol:
Estimated affinities against human and mouse antigen for select αKlotho Fabs were obtained by surface plasmon resonance on a ProteOn XPR36 (FIG. 17). Fabs were captured using an anti-IgG(H+L) antibody and serial dilutions of αKlotho were injected. Binding curves were fitted to the Langmuir model. (A) Determined Kon, Koff and KD values. (B) and (C) Binding curves for human and mouse antigen respectively.

B1: sb106 Fab (Fab, V domains shown)
VH: EVQLVESGGGLVQPGGSLRLSCAASGFNISYYSIHWVRQAPGKGLEWVAYISPSYGYTSYADSVKGRFTISADTSKNTAYLQMNSLRAEDTAVYYCARYYVYASHGWAGYGMDYWGQGTLVTVSS
VL: DIQMTQSPSSLSASVGDRVTITCRASQSVSSAVAWYQQKPGKAPKLLIYSASSLYSGVPSRFSGSRSGTDFTLTISSLQPEDFATYYCQQAGYSPITFGQGTKVEIKR
notes: also called Fsb106; clone 48
One may read the IC50 as the concentration that inhibits the measured activity by half. For orientation: Kd means the free concentration of one partner at which half of the binding sites on the other are occupied at equilibrium, for simple one-to-one binding. The term koff denotes the first-order rate constant of dissociation. A high value points to a short-lived complex. A word on the kon: it is the rate constant with which the complex forms. A low value points to slower complex formation. For B1, the IC50 in assay [1] worked out at 1.7 nM. Besides, in assay [2], the equilibrium dissociation constant (Kd) was 0.784 nM, the koff stood at 0.000159 s⁻¹ and the association rate constant (kon) turned out to be 202000 M⁻¹ s⁻¹.

The values are drawn from patent US20190041402A1 (GOVERNING COUNCIL OF THE UNIVERSITY OF TORONTO, published 2019).
